Like-named read-outs stand apart in the source and are kept apart here.
Legend:
[1] = target: FLA10, the 90-kD subunit of FLA10 kinesin-II (fla10 gene product) (Chlamydomonas reinhardtii (endogenous in flagella)) (UniProt P46869); experiment: SEC + other: sucrose density gradient centrifugation
[2] = target: FLA10, the 90-kD subunit of FLA10 kinesin-II (fla10 gene product) (Chlamydomonas reinhardtii (endogenous in flagella)) (UniProt P46869); experiment: as above; remark: listed apart in the source
[3] = target: T1, FLA10, the 90-kD subunit of FLA10 kinesin-II (fla10 gene product) (Chlamydomonas reinhardtii (endogenous …, UniProt P46869 1-786)); experiment: as above
T1 sequence (looked up): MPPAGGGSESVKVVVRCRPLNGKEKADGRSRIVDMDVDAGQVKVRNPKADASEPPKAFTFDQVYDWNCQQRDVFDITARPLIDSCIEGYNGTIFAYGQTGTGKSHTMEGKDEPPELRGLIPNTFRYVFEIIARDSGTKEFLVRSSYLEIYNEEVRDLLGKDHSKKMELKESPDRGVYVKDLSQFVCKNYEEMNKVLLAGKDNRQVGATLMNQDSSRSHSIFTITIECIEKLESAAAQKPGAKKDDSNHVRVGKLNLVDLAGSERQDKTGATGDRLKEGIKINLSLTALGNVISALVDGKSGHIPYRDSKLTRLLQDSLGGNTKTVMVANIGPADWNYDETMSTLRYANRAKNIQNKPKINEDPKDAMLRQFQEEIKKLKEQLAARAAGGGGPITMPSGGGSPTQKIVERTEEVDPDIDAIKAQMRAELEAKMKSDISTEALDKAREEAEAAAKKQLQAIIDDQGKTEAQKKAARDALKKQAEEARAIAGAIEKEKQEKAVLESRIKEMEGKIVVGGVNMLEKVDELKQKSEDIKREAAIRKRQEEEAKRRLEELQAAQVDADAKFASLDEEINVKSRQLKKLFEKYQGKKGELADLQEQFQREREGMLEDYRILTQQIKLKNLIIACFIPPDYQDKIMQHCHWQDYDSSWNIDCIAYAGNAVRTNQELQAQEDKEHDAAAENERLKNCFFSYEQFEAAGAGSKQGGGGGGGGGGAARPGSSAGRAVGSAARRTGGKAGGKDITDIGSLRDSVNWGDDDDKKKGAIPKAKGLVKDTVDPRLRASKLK

[4] = target: T2, p172, IFT particle polypeptide of complex B (Chlamydomonas reinhardtii (endogenous in flagella)), Q5DM57; experiment: sucrose density gradient centrifugation; conditions: remark: other sources report otherwise
T2 chain: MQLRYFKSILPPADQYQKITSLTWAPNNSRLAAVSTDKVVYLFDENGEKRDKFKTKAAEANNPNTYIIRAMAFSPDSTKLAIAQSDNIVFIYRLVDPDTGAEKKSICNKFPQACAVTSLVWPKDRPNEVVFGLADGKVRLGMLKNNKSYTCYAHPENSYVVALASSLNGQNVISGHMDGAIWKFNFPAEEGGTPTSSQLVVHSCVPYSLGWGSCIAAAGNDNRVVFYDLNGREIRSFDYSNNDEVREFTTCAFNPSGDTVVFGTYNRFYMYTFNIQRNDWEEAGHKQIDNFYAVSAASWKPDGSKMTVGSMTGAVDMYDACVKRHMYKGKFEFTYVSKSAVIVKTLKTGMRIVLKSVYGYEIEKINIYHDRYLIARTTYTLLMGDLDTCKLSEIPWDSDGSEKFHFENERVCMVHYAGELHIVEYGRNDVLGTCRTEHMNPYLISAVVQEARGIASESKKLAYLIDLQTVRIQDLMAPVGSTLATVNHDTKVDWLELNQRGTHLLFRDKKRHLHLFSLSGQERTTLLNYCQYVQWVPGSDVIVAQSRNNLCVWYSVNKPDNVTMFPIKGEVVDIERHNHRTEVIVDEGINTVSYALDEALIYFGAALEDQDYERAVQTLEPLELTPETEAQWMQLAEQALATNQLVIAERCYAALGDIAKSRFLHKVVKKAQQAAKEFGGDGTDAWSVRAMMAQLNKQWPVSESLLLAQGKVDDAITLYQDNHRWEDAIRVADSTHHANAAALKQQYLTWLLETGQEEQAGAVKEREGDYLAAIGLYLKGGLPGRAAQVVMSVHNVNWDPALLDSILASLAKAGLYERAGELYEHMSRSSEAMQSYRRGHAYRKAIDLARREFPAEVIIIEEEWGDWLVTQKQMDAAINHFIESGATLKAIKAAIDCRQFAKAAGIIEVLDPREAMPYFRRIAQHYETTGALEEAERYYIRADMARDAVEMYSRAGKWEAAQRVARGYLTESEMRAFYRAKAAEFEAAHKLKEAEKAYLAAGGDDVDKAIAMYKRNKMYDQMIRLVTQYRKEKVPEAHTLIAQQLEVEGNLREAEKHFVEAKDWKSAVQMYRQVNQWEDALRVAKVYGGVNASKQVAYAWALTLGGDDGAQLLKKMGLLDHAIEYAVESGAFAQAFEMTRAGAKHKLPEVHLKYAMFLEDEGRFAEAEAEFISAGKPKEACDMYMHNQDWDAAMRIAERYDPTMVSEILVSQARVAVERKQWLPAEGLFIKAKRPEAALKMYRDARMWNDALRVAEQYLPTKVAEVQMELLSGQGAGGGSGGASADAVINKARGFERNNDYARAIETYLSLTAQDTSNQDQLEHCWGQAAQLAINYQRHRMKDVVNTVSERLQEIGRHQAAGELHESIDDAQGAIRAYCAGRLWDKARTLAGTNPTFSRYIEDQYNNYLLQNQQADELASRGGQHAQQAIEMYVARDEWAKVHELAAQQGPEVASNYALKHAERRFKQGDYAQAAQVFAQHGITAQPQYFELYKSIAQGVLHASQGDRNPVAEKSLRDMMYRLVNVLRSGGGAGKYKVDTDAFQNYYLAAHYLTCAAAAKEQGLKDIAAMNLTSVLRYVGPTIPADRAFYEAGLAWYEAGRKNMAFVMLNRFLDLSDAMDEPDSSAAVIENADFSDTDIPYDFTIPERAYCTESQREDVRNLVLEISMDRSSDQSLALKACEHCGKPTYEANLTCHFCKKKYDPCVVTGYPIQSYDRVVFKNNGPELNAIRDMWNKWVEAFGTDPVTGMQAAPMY

## 100-kD nonmotor subunit of FLA10 kinesin-II (natural protein)
[1]
  stoichiometry N: 1
[2]
  stoichiometry N: 0.8

B1: 85-kD subunit of FLA10 kinesin-II (natural protein, UniProt A7LGV1 1-768, looked up)
chain: MASGGECVKVAVRCRPLNGKEKGDNRATIVEVDNKTGQVTLNNPKGDEPPKTFTFDNAFDWNVTQRDVYDVVARPIVNSVMDGYNGTIFAYGQTGTGKTHTMEGFPTPELQGIIPNCFDHVFETVNSSTGKQWMVRASYLEIYNEEVRDLLSKDPKNKLELKEHKDSGVYVKGLNAFVVKGVPELKNVLEVGKKNRSVGATLMNQDSSRSHSIFTITIETIEQTQAQPEGHIRVGKLNLVDLAGSERQSKTGATGDRLKEATKINLSLSALGNVISALVDGKSGHVPYRDSKLTRLLQDSLGGNTKTIMCANMGPADWNYDETLSTLRYANRAKNIKNKPKINEDPKDAMLREFQDEIARLKAALEAEGGALPEGFATGPGGEIIVEKVVQVPKALDASFLEQMRKDMEEQMKKELASQQAAALNDEQLQKVKEEAAAKAKAEAARLEEEKKKAEEEAARMQRKQQKIKAEMDKKSLDAEQIRAEKEALAKKLKAMESKILKGDQAGGLAEVTKKKEEELKRKEQELERRRKEEEEQRKKIQVMEEQQLAMEDKYKDKADEADQKTKKLKKLWKKFQEVNAEVEDMYKEFQREKEDLLESIRMLQDQMQLKDMVIEAFIPPEEVQKVMKRAHWDDEREVWVLERLSDIGKRETAQGASRRPVSASGQRRPTSDFAKLANAMGDMNPRFKSENILNLELDLPERTTYDYEGPGVDPRVQAAINAAFAEDGELIFVGSEQNVHLGDASAAAARPDSAKKRPASARKGTKK
[3]
  stoichiometry N: 1

B2: p81, IFT particle polypeptide of complex B, Q68RJ5 1-683 (natural protein)
chain: MGDVSYIVDSLGLPPFSYQMSLLSFTEKGPQELLQLLSDVFSTISPKHQKVDVAKEVPDQTADRLIGFLKIIKYRPNVQDPLLFRQLVAAGDRETLYQILRWVVPQAQLLEKRAFVGYYLSFPDMPEEFNFDPDIMELKEEIKAMQQEFIELHKSSDAIKTLSKDTQALKNKIKSLEEEKERLGEKVERAKGAVDKLPDRSSYMEVCTNLRKQQDEEVNLSTAIQTQRALQEKAEASYHRAAARLRELQTSYQEGSAGKLLETLNEDVKNLRAQVNERYPKEVEKRQKRQAALSEALASGISTEMDLQRLQHQATALHNQITEIQERKVAQDKARQGDKAYLQLRQAQQMATVSARKKEELGAKQERLQEKKTALTAQLDKLNAEGGGSGAVFSEEEWRTKYESMKSKLPIYKKMKKELGDLEAEVFVLAHTEELLASQEGGLLEKVKRLEKQQGISGFTETAQHLEKVSEAKSQMDEEKGMTLIEISRTVEEINNAINQRKQQLAPQIKKLRSVRQDFAEFEAKYLEKKTAYDNVVATFEARTSALEGEVSGLKAEVSENETKYHMLHCQLHITDQNIKKVTSGPAAERLRDKYEAKVKEAEDSTKALRDRQREIKDTHSTGLSQIDIMNDMLRLLQLKLNLARGIAVDMSQYGGGGGAAGGANGGMAGQTYDTGSANVLQL
[4]
  stoichiometry N: 1

Source: publication PMC2132775 (The Journal of Cell Biology, 1998)
